Assay [1] addresses T1, canine PD-L1 on cPD-L1-EGFP expressing COS-7 cells (canine, UniProt E2RKZ5 19-289).
T1 construct: Transient expression in COS-7 cells; also called canine PD-L1 expressing cells; cPD-L1-EGFP expressing cell
T1 sequence: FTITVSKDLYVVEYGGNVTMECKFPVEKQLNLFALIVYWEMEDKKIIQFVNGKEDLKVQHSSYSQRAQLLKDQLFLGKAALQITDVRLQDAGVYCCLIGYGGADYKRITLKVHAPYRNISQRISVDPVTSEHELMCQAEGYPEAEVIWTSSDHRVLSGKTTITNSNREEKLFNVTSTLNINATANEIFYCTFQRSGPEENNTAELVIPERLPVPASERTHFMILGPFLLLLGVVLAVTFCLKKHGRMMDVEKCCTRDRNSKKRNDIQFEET
Briefly: flow cytometry (section 2.5). Here is the method:
In order to identify rat anti-bovine PD-L1 monoclonal antibody showing cross-reactivity with canine PD-L1, flow cytometry was performed using the anti-bovine PD-L1 antibody prepared in 2.1 above. The anti-bovine PD-L1 antibody (10 μg/ml) was reacted with 2×10⁵-1×10⁶ cells at room temperature for 30 min. After washing, the anti-bovine PD-L1 antibody was detected with allophycocyanine-labeled anti-rat Ig goat antibody (Beckman Coulter). FACS Verse (Becton, Dickinson and Company) was used for analysis. As negative controls, rat IgG2a (κ) isotype control (BD Biosciences), rat IgG1 (κ) isotype control (BD Biosciences) and rat IgM (κ) isotype control (BD Biosciences) were used. For every washing operation and dilution of antibodies, 10% inactivated goat serum-supplemented PBS was used (MaekawaN, Konnai S, Ikebuchi R, Okagawa T, Adachi M, Takagi S, KagawaY, Nakajima C, Suzuki Y, Murata S, Ohashi K. PLoS One. 2014 Jun. 10; 9(6):e98415 which is an article describing the use of three bovine PD-L1 monoclonal antibodies: 4G12 (Rat IgG2a (κ)), 5A2 (Rat IgG1 (κ)) and 6G7 (Rat IgM (κ)).

Assay [2] deals with T2, canine PD-L1-His (canine).
T2 construct: extracellular domain; Made in Expi293F cells; also called cPD-L1-His
Briefly: SPR (Biacore X100), cPD-L1-His captured by anti-histidine antibody on a CM5 chip, antibody as analyte. The protocol: Using a biomolecular interaction analyzer (Biacore X100), the binding avidities to cPD-L1-His of rat anti-bovine PD-L1 monoclonal antibody 4G12 and rat-canine chimeric anti-PD-L1 antibody c4G12 were assessed. Briefly, anti-histidine antibody was fixed on CM5 censor chip, followed by capturing of cPD-L1-His. Subsequently, monoclonal antibodies were added as analyte to observe specific binding. […] Further, the binding avidities of canine PD-1-Ig and CD80-Ig to cPD-L1-His were measured in the same manner and found to be clearly lower than that of rat-canine chimeric anti-PD-L1 antibody c4G12 (Table 1).
(In general: In SPR one partner is held on a chip, and binding of the other changes the refractive index at the surface.)

The target in assay [3] is T1, canine PD-L1 on cPD-L1-EGFP expressing …. Nature of the assay: flow cytometry on canine PD-L1 expressing cells. On the technique in general: Flow cytometry measures light scatter and fluorescence of single cells or particles in a stream.
Assay [4] addresses T3, bovine FcγRI-His (bovine).
T3 construct: extracellular domain; Made in Expi293F cells; also called soluble bovine FcγRI
Briefly: ELISA: antibody immobilized at 1.56 to 50 nM, bovine FcγRI-His added at 10 µg/ml, detection with anti-polyhistidine antibody and HRP anti-mouse IgG [A]. The protocol:
(§1) Subsequently, each well was washed with 200 μl of 0.05% Tween 20-supplemented PBS (PBS-T) five times, followed by blocking with SuperBlock (PBS) Blocking Buffer (Thermo Fisher Scientific) at 37° C. for 30 min. Each well was washed again in the same manner. Then, bovine FcγRI-His, FcγRII-His, FcγRIII-His or Fcγ2R-His was added to each well at a final concentration of 10 μg/ml and reacted at 37° C. for 1 hr. After washing, anti-polyhistidine tag mouse monoclonal antibody (Abcam) was reacted at 37° C. for 30 min. Subsequently, each well was washed, and horseradish peroxidase-labeled anti-mouse IgG goat polyclonal antibody (MP Biomedicals) was reacted at 37° C. for 30 min. Each well was washed again, and then TMB One Component Substrate (Bethyl) was added for coloring. Thereafter, the enzyme reaction was terminated with 0.18 M dilute sulfuric acid, and absorbance (450 nm) was measured with Microplate Reader MTP-900 (Corona Electric).
(In general: In an ELISA, binding on a coated surface is turned into a signal by an enzyme label.)

In assay [5] the target is T4, bovine FcγRII-His (bovine, UniProt Q28110 43-225).
T4 construct: extracellular domain; Made in Expi293F cells; also called soluble bovine FcγRII
T4 sequence: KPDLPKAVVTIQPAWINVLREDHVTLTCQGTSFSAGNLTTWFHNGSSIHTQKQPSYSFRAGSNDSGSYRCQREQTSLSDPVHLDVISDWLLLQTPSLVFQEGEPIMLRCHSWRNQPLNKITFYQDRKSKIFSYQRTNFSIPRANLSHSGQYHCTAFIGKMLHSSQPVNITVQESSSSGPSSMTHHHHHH
Briefly: ELISA: antibody immobilized at 1.56 to 50 nM, bovine FcγRII-His added at 10 µg/ml [B]. The protocol:
as §1

In assay [6] the target is T5, bovine PD-1-His (bovine).
T5 construct: extracellular domain; Made in Expi293F cells; also called soluble bovine PD-1-His; PD-1 protein
Briefly: SPR (Biacore X100), bovine PD-1-His immobilised on a CM5 chip, antibody as analyte, single kinetics, 3 repeats. The protocol: The binding avidities to bovine PD-1 of rat anti-bovine PD-1 antibody 5D2 and rat-bovine chimeric anti-bovine PD-1 antibody ch5D2 were measured by surface plasmon resonance using a biomolecular interaction analyzer (Biacore X100). Briefly, bovine PD-1-His (described above) was immobilized on a CM5 sensor chip (GE Healthcare) as a ligand. Subsequently, rat anti-bovine PD-1 antibody 5D2 or rat-bovine chimeric anti-bovine PD-1 antibody ch5D2 was reacted as an analyte, followed by single kinetics analysis. The experiment was repeated 3 times under the same conditions. Binding constant (kd value) and dissociation constant (ka value) were determined in each experiment, and binding avidity (KD value) was obtained.

B1: rat anti-bovine PD-L1 monoclonal antibody 4G12 (antibody, V domains shown)
VH: QVQLQQSGAELVKPGSSVKISCKASGYTFTSNFMHWVKQQPGNGLEWIGWIYPEYGNTKYNQKFDGKATLTADKSSSTAYMQLSSLTSEDSAVYFCASEEAVISLVYWGQGTLVTVSS
VL: DIAITQSPSSVAVSVGETVTLSCKSSQSLLYSENQKDYLGWYQQKPGQTPKPLIYWATNRHTGVPDRFTGSGSGTDFTLIISSVQAEDLADYYCGQYLVYPFTFGPGTKLELK
As a reminder, the kon is the rate constant with which the complex forms. Read a high kon as fast association. For the molecule B1, in assay [1], the binding result was “binds”. This molecule also had a kon in assay [2] of 2.42e+06 M⁻¹ s⁻¹.

B2: rat-canine chimeric anti-PD-L1 antibody c4G12 (antibody, V domains shown)
VH: B1 VH
VL: DIAITQSPSSVAVSVGETVTLSCKSSQSLLYSENQKDYLGWYQQKPGQTPKPLIYWATNRHTGVPDRFTGSGSGTDFTLIISSVQAEDLADYYCGQYLVYPFTFGPGTKLELKQ
notes: 4G12 variable regions on canine IgG-D (equivalent to human IgG4) heavy and canine lambda light constant regions
On to B2, for which the binding result in assay [3] was “binds”. Moreover, in assay [2], the kon came to 3.14e+06 M⁻¹ s⁻¹.

B3: rat-bovine chimeric anti-bovine PD-1 antibody ch5D2 having wild-type bovine IgG1 (IgG1 WT) (antibody)
heavy: QVQLKETGPGLVQPTQTLSITCTVSGFSLTSYYIQWVRQTPGKGLEWMGFIRSGGSTEYNSEFKSRLSINRDTSKNQVFLKMNSLKTEDTGVYYCARTSSGYEGGFDYWGQGVMVTVSSASTTAPKVYPLSSCCGDKSSSTVTLGCLVSSYMPEPVTVTWNSGALKSGVHTFPAVLQSSGLYSLSSMVTVPGSTSGQTFTCNVAHPASSTKVDKAVDPTCKPSPCDCCPPPELPGGPSVFIFPPKPKDTLTISGTPEVTCVVVDVGHDDPEVKFSWFVDDVEVNTATTKPREEQFNSTYRVVSALRIQHQDWTGGKEFKCKVHNEGLPAPIVRTISRTKGPAREPQVYVLAPPQEELSKSTVSLTCMVTSFYPDYIAVEWQRNGQPESEDKYGTTPPQLDADSSYFLYSKLRVDRNSWQEGDTYTCVVMHEALHNHYTQKSTSKSAGK
light: DVVLTQTPVSLSVTLGDQASISCRSSQSLEYSDGYTYLEWYLQKPGQSPQLLIYGVSNRFSGVPDRFIGSGSGTDFTLKISRVEPEDLGVYYCFQATHDPDTFGAGTKLELKQPKSPPSVTLFPPSTEELNGNKATLVCLISDFYPGSVTVVWKADGSTITRNVETTRASKQSNSKYAASSYLSLTSSDWKSKGSYSCEVTHEGSTVTKTVKPSECS
notes: Made in Expi293F cells; also called ch5D2 IgG1 WT
For orientation: EC50 (read off the curve) means the concentration giving half of the maximal effect. Low values mean an effect from little substance, high ones a need for much substance. On to B3, for which the 50% effective concentration (EC50 (read off the curve)) in assay [4] was approximately 9 nM.

B4: rat-bovine chimeric anti-bovine PD-1 antibody ch5D2 (mutated bovine IgG1, IgG1 ADCC-) (antibody)
heavy: QVQLKETGPGLVQPTQTLSITCTVSGFSLTSYYIQWVRQTPGKGLEWMGFIRSGGSTEYNSEFKSRLSINRDTSKNQVFLKMNSLKTEDTGVYYCARTSSGYEGGFDYWGQGVMVTVSSASTTAPKVYPLSSCCGDKSSSTVTLGCLVSSYMPEPVTVTWNSGALKSGVHTFPAVLQSSGLYSLSSMVTVPGSTSGQTFTCNVAHPASSTKVDKAVDPTCKPSPCDCCPPPPVAGPSVFIFPPKPKDTLTISGTPEVTCVVVDVGHDDPEVKFSWFVDDVEVNTATTKPREEQFNSTYRVVSALRIQHQDWTGGKEFKCKVHNEGLPSSIVRTISRTKGPAREPQVYVLAPPQEELSKSTVSLTCMVTSFYPDYIAVEWQRNGQPESEDKYGTTPPQLDADSSYFLYSKLRVDRNSWQEGDTYTCVVMHEALHNHYTQKSTSKSAGK
light: B3 light
notes: 5D2 variable regions on bovine IgG1 (modified from X62916); also called ch5D2 IgG1 ADCC-
As usually defined, the Kd is the concentration at which binding is half-saturated. Higher therefore signals a looser complex. What is called koff is the rate constant with which the complex falls apart. The low end stands for a long-lived complex, the high end for a short-lived complex. In the case of B4, in assay [5], the binding result is listed as “no binding (tested: 50 nM)”. In assay [6], this molecule displayed a Kd of 10.5 nM, a koff of 0.000216 s⁻¹ and a kon of 20700 M⁻¹ s⁻¹.

The values are drawn from US20250066483A1 (FUSO PHARMACEUTICAL INDUSTRIES, published 2025).
